Data: the RNAGym collection of RNA variant scans (doi:10.1073/pnas.2313332121)
Fewer inactive variants are shown than the library holds.

B1: TPR 5TU (parent)
chain: GGAUCUUCUCGAUCUAACAAAAAAGACAAAUCUGCCACAAAGCUUGAGAGCAUCUUCGGAUGCAGAGGCGGCAGCCUUCGGUGGCGCGAUAGCGCCAACGUUCUCAACUAUGACACGCAAAACGCGUGCUCCGUUGAAUGGAGUUUAUCAUG

Variants of: B1
Experiment: polymerase ribozyme fitness, log enrichment relative to wild type (log ratio); higher = more active; in vitro selection for triplet polymerase activity
How it was run: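 Each subunit of a heterodimeric triplet polymerase ribozyme was represented by a PCR-built, transcribed mutant library that underwent triplicate single-round in vitro selection with frozen incubation at −7 °C. Extended constructs were recovered by gel excision, streptavidin-bead capture and RT-PCR, and Illumina sequencing of input and output libraries kept genotypes with ≥10 input reads and ≥1 read per output. Fitness is the logarithm of genotype enrichment relative to wild-type enrichment, from inverse-variance-weighted replicate averages, with a logarithm base of 2.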

Variant	polymerase ribozyme fitness (log ratio)
G84U C96A C103U A113U	≤ -4.2
C85A A137G	-2.96
C85A U148A	-3.51
C85A U148C	-2.22
G84U C93G	≤ -4.2
C85A C95G A115G	-3.81
C85A G152U	-3.5
C85A U145G	-1.06
C85G A106G	-2.59
C85A G140A	-4.18
C85A G140U	-3
G84U G94U	-2.37
G84A U146A	-0.719
G84U C123A	-1.79
G84U U104G C125A	-3.09
C85G C93U C116U U127G	≤ -4.2
G84U G136A G141C	-1.29
C85A A150C	≤ -4.2
C85A A150G	-2.41
C85G C93G	-3.68
G84U A138U	≤ -4.2
C85A A138G	-3.24
C85A C108U U135A U144C	-4.17
C85A G126A	-1.32

Variant	polymerase ribozyme fitness (log ratio)
C85A A91G	-3.36
C85G A106C G141C	-3.91
C85A C105U	-1.89
C85A A106G	-2.01
G84C G117C	-1.73
G84U U90A C108A	≤ -4.2
C85A C95A C125U	-1.39
G84C A115C C116U	-3.98
G84U U130A U145C	-4.13
G84U G141A	-1.4
C85A C123U	-1.2
C85A C103G A147U	-2.48
G84U A120G	-2.16
C85A U144C	-0.693
C85A U144G	-0.777
C85A U144A	-0.579
C85A G136C	-4.19
C85G A122C	-1.98
G84A U134G	-2.31
G84A U134C	-0.573
G84U C103U A137C	≤ -4.2
G84A U148C	-2.65
G84A U148A	-2.74
G84C G92C A106U C149U	≤ -4.2

Variant	polymerase ribozyme fitness (log ratio)
G84U A121C	-1.74
C85G A122U C123A	-2.3
C85A G117A	-1.76
C85A G117C	-1.3
G84U U101G G126C	-1.67
C85A G133U	≤ -4.2
C85A C96U C132A	-3.67
C85A G92C G141A G143U	≤ -4.2
G84C A115G	-2.49
C85G A98G U144G	-0.337
C85A G124C	-1.69
C85A G124U	-1.9
G84U G117U C123U G141A U146A	≤ -4.2
G84U A115U	-3.4
G84U C87G U90C C96U U145G	≤ -4.2
G84U C87A C116U	≤ -4.2
C85G A147U	-0.872
C85G A147C	-1.67
G84U G126A	-1.87
G84U G126U	-1.45
G84C C85G	-4.03
C85A A98U C108A U134G	≤ -4.2
C85A C96U G128A	-4.19
C85A G117A A138G	-4.18

Variant	polymerase ribozyme fitness (log ratio)
C85G C87U U145A	-2.77
G84U G88A A120C	≤ -4.2
C85G C95A	-1.68
C85A C96U A137U U144A	≤ -4.2
G84U U134A A142C	≤ -4.2
C85A G92U G117U	-2.26
G84U C131G	-3.96
C85A C96A	-2.22
C85A A122G	-2.54
C85A C116A	0.744
C85G A97G A150U	-2.03
G84U U101G U134G	-3.87
C85A C149U	-1.59
C85A C87U A119U	≤ -4.2
C85A U134G	-3.6
C85A U134C	-0.169
C85A G94A	-1.74
G84A U144A	-1.65
G84A U144G	0.394
G84U C116U G143C	-3.37
C85A A107U A147C U151C	≤ -4.2
G84U A89U U104G U127A	≤ -4.2
G84U A89G	-3.82
G84C C123G U146G	-2.7

Variant	polymerase ribozyme fitness (log ratio)
G84U A98G	-2.89
G84A U127C U139G A142C	-3.93
C85A A98G C116U A120C A147U	0.389
G84A U145C	-0.153
G84A U145A	0.189
G84A U109G	-1.95
G84U C93A U101C A107G G133U G141C	≤ -4.2
C85A G94A G128C	-3.21
G84U C87G G88C G143C	≤ -4.2
C85A C114U G143A	≤ -4.2
G84U U127A U134G	≤ -4.2
C85A C125A A137G	-2.28
C85A A120U	-1.7
G84U C99G U148A	≤ -4.2
G84U C129U	-1.42
G84U U102C C149G	≤ -4.2
G84U G133C	-3.53
C85A C118A	-0.973
G84U G100A A106U A137C	≤ -4.2
C85A G92U C131G G152C	≤ -4.2
C85A C125A	-2.27
C85A C125U	-1.7
G84U G86C C93G A98U A142U	-1.78
C85A G112U	≤ -4.2

Variant	polymerase ribozyme fitness (log ratio)
C85A C99G	-3.49
C85A C99A	-2.8
G84U G117A	-2
G84C C85A G92U C96A A97C C105U	-2.61
C85A G88U C95G A97C	≤ -4.2
G84U U102G	-4.16
G84U A137U C149A	≤ -4.2
G84U A97U	-1.54
C85A U139C U145C	≤ -4.2
C85A C129G	-2.95
G84U C105A U139C	-4.17
C85A G126C U148A	-4.13
G84U G94A C96A	-3.87
G84U A142G	-3.27
G84C A121U A122C	-1.63
C85A A147G	-0.743
G84U U104G	-2.26
G84C C125G	-1.94
G84U A91G U144G	-1.53
G84U G86A C93U C123U	-1.15
G84U G92C A121U	-2.94
C85A U109G	-1.33
C85A G112U A113C U148G	≤ -4.2
G84C C95A A142C	-1.65

Variant	polymerase ribozyme fitness (log ratio)
G84U C95U	-1.23
C85A C93U A119C G126U U127A	≤ -4.2
C85G	-2.05
C85A	-1.28
C85G A119U	-3.69
C85G A142C	-2.98
C85A A142C	-3.23
G84U A106C	-2.1
G84U A106U	-2.69
G84U G92A	≤ -4.2
C85A U135G A137U	≤ -4.2
G84U C116U G141C	-4.04
C85A U127A	-3.68
G84C A142G	-3.03
G84A U135A	-1.69
G84U U144A	-3.22
C85A A89G U146C	-2.83
C85A G94C A121C	-1.84
C85G A121G C132U	-2.88
G84U C99G C103U	≤ -4.2
C85A U109G C118U	-1.54
C85A U135C	-2.15
C85A U135A	-0.589
